Test results taken from US20250346679A1 (INVOX PHARMA, published 2025).

T1: cynomolgus CD137, cell-surface (cynomolgus, UniProt Q07011 24-255 (human entry))
T1 chain: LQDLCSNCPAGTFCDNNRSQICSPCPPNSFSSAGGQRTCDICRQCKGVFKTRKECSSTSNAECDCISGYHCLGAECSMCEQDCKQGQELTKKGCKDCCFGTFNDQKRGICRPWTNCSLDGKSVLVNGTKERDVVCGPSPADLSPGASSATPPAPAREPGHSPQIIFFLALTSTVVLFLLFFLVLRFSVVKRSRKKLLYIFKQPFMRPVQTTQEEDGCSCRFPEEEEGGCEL

T2: cCD137-mFc-Avi (cynomolgus; mouse)
T2 construct: also called cynomolgus CD137-mFc-Avi; Cyno CD137-mFc-Avi; not shown: mouse IgG2a Fc domain (mIgG2a Fc)
T2 chain: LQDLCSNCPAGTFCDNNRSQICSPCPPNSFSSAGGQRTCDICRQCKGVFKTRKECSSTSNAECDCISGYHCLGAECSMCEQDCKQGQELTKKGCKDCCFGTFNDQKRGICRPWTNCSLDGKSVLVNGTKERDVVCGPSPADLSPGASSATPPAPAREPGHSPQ

T3: mouse FcRn (R&D systems, 9114-Fc) (mouse, UniProt Q61559 22-297; P01887 21-119, limits assumed)
T3 sequence (looked up) 1: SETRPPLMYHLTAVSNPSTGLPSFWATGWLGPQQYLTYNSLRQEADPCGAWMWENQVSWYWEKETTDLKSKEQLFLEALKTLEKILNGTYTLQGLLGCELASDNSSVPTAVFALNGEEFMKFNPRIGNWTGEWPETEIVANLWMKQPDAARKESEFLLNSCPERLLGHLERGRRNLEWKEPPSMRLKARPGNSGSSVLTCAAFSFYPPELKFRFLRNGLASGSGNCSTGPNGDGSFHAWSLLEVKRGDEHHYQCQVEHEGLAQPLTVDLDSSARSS
T3 sequence (looked up) 2: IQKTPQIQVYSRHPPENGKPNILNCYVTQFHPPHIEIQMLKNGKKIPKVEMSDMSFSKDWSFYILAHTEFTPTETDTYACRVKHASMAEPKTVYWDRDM

B1: FS22-053-008-AA/E12v2 (bispecific antibody, human IgG1, kappa, L234A L235A)
heavy: EVQLVQSGAEVKRPGASVKVSCKASGYPFTSYGISWVRQAPGQGLEWMGWISAYSGGTNYAQKLQGRVTMTTDTSTSTAYMELRSLRSDDTAVYYCARDLFPTIFGVSYYYYWGQGTLVTVSSASTKGPSVFPLAPSSKSTSGGTAALGCLVKDYFPEPVTVSWNSGALTSGVHTFPAVLQSSGLYSLSSVVTVPSSSLGTQTYICNVNHKPSNTKVDKKVEPKSCDKTHTCPPCPAPEAAGGPSVFLFPPKPKDTLMISRTPEVTCVVVDVSHEDPEVKFNWYVDGVEVHNAKTKPREEQYNSTYRVVSVLTVLHQDWLNGKEYKCKVSNKALPAPIEKTISKAKGQPREPQVYTLPPSRDELNPPYLFSNQVSLTCLVKGFYPSDIAVEWESNGQPENNYKTTPPVLDSDGSFFLYSKLTVDYWRWLEGNVFSCSVMHEALHNHYTQKSLSLSPG
light: DIQMTQSPSTLSASVRDRVIITCRASQSIGNRLAWYQHKPGKAPKLLIYEASTSETGVPSRFSGSGSGTDFTLTISSLQPEDFATYYCQQSYSTPYTFGQGTKLEIKRTVAAPSVFIFPPSDEQLKSGTASVVCLLNNFYPREAKVQWKVDNALQSGNSQESVTEQDSKDSTYSLSSTLTLSKADYEKHKVYACEVTHQGLSSPVTKSFNRGEC
B2: G1-AA/20H4.9 (antibody, V domains shown)
VH: QVQLQQWGAGLLKPSETLSLTCAVYGGSFSGYYWSWIRQSPEKGLEWIGEINHGGYVTYNPSLESRVTISVDTSKNQFSLKLSSVTAADTAVYYCARDYGPGNYDWYFDLWGRGTLVTVSS
VL: EIVLTQSPATLSLSPGERATLSCRASQSVSSYLAWYQQKPGQAPRLLIYDASNRATGIPARFSGSGSGTDFTLTISSLEPEDFAVYYCQQRSNWPPALTFGGGTKVEIKR
B3: FS22-172-003-AA/lam-G02v3 (bispecific antibody, human IgG1, L234A L235A)
heavy: EVQLVQSGAEVKRPGASVKVSCKASGYTFTSYGISWVRQAPGQGLEWMGWISAYSGGTNYAQKLQGRVTMTTDTSTSTAYMELRSLRSDDTAVYYCARDLFPTIFGVSYYYYWGQGTLVTVSSASTKGPSVFPLAPSSKSTSGGTAALGCLVKDYFPEPVTVSWNSGALTSGVHTFPAVLQSSGLYSLSSVVTVPSSSLGTQTYICNVNHKPSNTKVDKKVEPKSCDKTHTCPPCPAPEAAGGPSVFLFPPKPKDTLMISRTPEVTCVVVDVSHEDPEVKFNWYVDGVEVHNAKTKPREEQYNSTYRVVSVLTVLHQDWLNGKEYKCKVSNKALPAPIEKTISKAKGQPREPQVYTLPPSRDELPYIIPPYNQVSLTCLVKGFYPSDIAVEWESNGQPENNYKTTPPVLDSDGSFFLYSKLTVGADRWLEGNVFSCSVMHEALHNHYTQKSLSLSPG
light: QSALTQPASVSGSPGQSITISCTGTSSDVGGYNYVSWYQQFPGKAPKLMIFEVTNRPSGVSDRFSGSKSDNTASLTISGLQAEDEAEYYCSSFKRGSTLVVFGGGTKLTVLGQPAAAPSVTLFPPSSEELQANKATLVCLISDFYPGAVTVAWKADSSPVKAGVETTTPSKQSNNKYAASSYLSLTPEQWKSHRSYSCQVTHEGSTVEKTVAPTECS
notes: see recheck
B4: G1-AA/G12v2 (antibody, human IgG1, kappa, L234A L235A, V domains shown)
VH: EVQLVQSGAEVKRPGASVKVSCKASGYTFTSYGISWVRQAPGQGLEWMGWISAYSGGTNYAQKLQGRVTMTTDTSTSTAYMELRSLRSDDTAVYYCARDLFPTIFGVSYYYYWGQGTLVTVSS
VL: DIQMTQSPSTLSASVGDRVTITCRASQSISGRLAWYQQKPGKAPNLLIYEASNLESGVPSRFSGSGSGTEFTLTISSLQPEDFATYYCQQSYSWPRTFGQGTKVEIKR
notes: anti-PD-L1 IgG1 with LALA

Experiments:
[1] = target: T1, cynomolgus CD137, cell-surface; assay: cell-based or functional assay
cCD137-mFc-Avi = target: T2, cCD137-mFc-Avi; assay: SPR, mAb^2 captured by anti-human Fab, antigen in flow
Procedure: (§1) The binding of the anti-human CD137/PD-L1 mAb² to recombinant dimeric human and cynomolgus CD137 antigens was also measured by SPR using a Biacore T200 processing unit (GE Healthcare).
(§2) Briefly, 20 μg/ml anti-human Fab antibody (GE Healthcare, Human Fab Capture kit 28958325) was coated on flow cells 1, 2, 3 and 4 of a Biacore sensor S chip CM5 (GE Healthcare, BR100530) achieving a final response of approximately 5000 RU. […] The recombinant dimeric antigens, human CD137-mFc-Avi or cynomolgus CD137-mFc-Avi (see Example 1.1 for antigen details) diluted in HBS-EP buffer, were injected on flow cell 1, 2, 3 or 4 as appropriate at a concentration range of 81 nM to 0.037 nM with 3-fold dilutions for 4 minutes at 70 μl/min and then allowed to dissociate in buffer for 10 minutes. Regeneration was achieved by injecting 10 mM glycine pH 2.1 (GE Healthcare, Human Fab Capture kit 28958325) for 60 seconds at a rate of 30 μl/min. Data analysis was performed as described in Example 9.1.

hCD137-mFc-Avi = target: T4, hCD137-mFc-Avi (human; mouse, UniProt Q07011 24-186, biotin on the Avi sequence where the biotinylated form was used); assay: as above
T4 construct: also called human CD137-mFc-Avi; dimeric human CD137; not shown: mouse IgG2a Fc domain (mIgG2a Fc)
T4 sequence (Q07011 24-186): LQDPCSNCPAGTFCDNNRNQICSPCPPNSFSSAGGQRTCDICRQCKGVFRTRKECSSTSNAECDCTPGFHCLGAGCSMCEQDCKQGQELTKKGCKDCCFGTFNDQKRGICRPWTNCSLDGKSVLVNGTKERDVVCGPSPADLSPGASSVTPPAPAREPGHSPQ
Procedure: as §1, §2

[2] = target: T5, human CD137, cell-surface (human, UniProt Q07011 24-255); assay: cell-based or functional assay
[3] = target: human PD-L1, cell-surface (human, UniProt Q9NZQ7 19-290); assay: cell-based or functional assay
Sequence of human PD-L1, cell-surface (Q9NZQ7 19-290): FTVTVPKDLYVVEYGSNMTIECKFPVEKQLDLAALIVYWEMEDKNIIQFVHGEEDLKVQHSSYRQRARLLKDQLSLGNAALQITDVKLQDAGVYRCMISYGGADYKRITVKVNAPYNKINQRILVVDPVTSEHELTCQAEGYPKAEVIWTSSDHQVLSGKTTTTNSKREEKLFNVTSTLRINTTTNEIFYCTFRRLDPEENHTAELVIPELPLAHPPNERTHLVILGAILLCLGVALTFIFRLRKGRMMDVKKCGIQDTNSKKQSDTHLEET

[4] = target: T6, cPD-L1-His (Acro Biosystems, PD1-C52H4) (cynomolgus, UniProt Q9NZQ7 19-238 (human entry)); assay: SPR, mAb^2 captured on Protein A chip, antigen in flow
T6 construct: bought; also called Cyno PD-L1-His; Cynomolgus PD-L1-His; not shown: His tag of the bought product
T6 sequence (Q9NZQ7 other isoform, or with tags, fused parts or gaps): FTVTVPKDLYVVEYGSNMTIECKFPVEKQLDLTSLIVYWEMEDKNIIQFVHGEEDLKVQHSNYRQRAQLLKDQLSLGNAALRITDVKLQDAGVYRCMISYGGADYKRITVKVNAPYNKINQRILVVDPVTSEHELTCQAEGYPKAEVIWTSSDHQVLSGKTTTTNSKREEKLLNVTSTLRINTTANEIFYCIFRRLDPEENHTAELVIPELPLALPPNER
Procedure: (§3) Briefly, the anti-human CD137/PD-L1 mAb², diluted in HBS-EP buffer (GE Healthcare, BR100188) at 2 μg/ml, were injected individually on flows cell 2, 3 and 4 of a Protein A chip (GE Healthcare, 29127556) at 30 μl/min to achieve a final response of approximately 110 RU. Two different recombinant human PD-L1 antigens were used i.e. hPD-L1-His-Avi (see Example 1.3 for antigen details) and biotinylated hPD-L1-Avi-His (Acrobiosystems, PD-1-H82E5). Human and cynomolgus PD-L1-His (Acrobiosystems, PD-1-C52H4) antigens, diluted in HBS-EP buffer, were injected on flow cell 1, 2, 3 or 4 as appropriate at a concentration range of 81 nM to 0.037 nM with 3-fold dilutions for 4 min at 75 μl/min and then allowed to dissociate in buffer for 10 min. Regeneration was achieved by injecting 10 mM glycine-HCL pH1.5 (GE Healthcare, Human Antibody Capture Kit, BR00356) for 30 sec at a rate of 30 μl/min. Subtracted data (flow cell 2−flow cell 1, flow cell 3−flow cell 1, or flow cell 4−flow cell 1) were analysed using BIAevaluation 3.2 Software (GE Healthcare) to identify binding using the model 1:1 binding with mass transfer, with refractive index (RI) constant 0.

[5] = target: T7, biotinylated hPD-L1-Avi-His (Acro Biosystems, PD1-H82E5) (human, UniProt Q9NZQ7 19-238, biotinylated); assay: as above
T7 construct: bought; also called Human PD-L1-His; not shown: Avi and His tags of the bought product
T7 sequence (Q9NZQ7 19-238): as the sequence (Q9NZQ7 other isoform, or with tags, fused parts or gaps) above, with T33A, S34A, N62S, Q68R, R82Q, L173F, A185T, I192T, L215H counted along it
Procedure: as §3

[6] = target: Human FcRn (Acro Biosystems, FCM-H5286) (human, UniProt P55899 24-297; P61769 21-119); assay: SPR, mAb^2 immobilised, FcRn in flow, pH 6.0, steady state affinity; pH 6.0
Sequence of Human FcRn (Acro Biosystems, FCM-H5286) (P55899 24-297 limits assumed, chain 1 of 2): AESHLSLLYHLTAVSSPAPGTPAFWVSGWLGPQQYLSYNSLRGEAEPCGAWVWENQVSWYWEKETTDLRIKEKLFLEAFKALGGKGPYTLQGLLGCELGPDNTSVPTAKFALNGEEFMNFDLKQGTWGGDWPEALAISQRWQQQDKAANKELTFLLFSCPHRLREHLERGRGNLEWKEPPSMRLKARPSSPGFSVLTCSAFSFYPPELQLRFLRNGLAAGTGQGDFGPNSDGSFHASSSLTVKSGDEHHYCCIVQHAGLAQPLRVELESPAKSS
Sequence of Human FcRn (Acro Biosystems, FCM-H5286) (P61769 21-119 limits assumed, chain 2 of 2): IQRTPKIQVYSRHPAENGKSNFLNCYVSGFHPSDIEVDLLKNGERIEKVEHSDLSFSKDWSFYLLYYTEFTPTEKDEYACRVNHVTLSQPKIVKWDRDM
Source text: (§4) The neonatal Fc receptor (FcRn) binding is critical for antibody recycling (Martins et al., 2016). […] G1-AA/HeID1.3 was included as an isotype control IgG control lacking mutations in the CH3 domain.
(§5) Briefly, mAb² were individually coated on flow cell 2, 3 and 4 of Series S Sensor Chip CM5 (GE Healthcare, BR100530) to achieve a response of approximately 1000 RU. Flow cell 1 was activated/deactivated but left blank as a reference. Human FcRn (Acro Biosystems, FCM-H5286) or mouse FcRn (R&D systems, 9114-Fc) was dialysed and diluted in MHBS-EP⁺B pH 6.0 or pH 7.4 buffer (10 mM MES, FortéBio, 18-5026; 1×HBS-EP, GE Healthcare, BR100669; 0.1 mg/ml BSA, Sigma, A7906) and injected on flow cell 1, 2, 3 and 4 at 2000-3000 nM with 2-fold dilutions for 1 min at 80 μl/min and then allowed to dissociate in buffer for 3 min. […] Subtracted data (flow cell 2−flow cell 1, flow cell 3−flow cell 1, or flow cell 4−flow cell 1) was analysed using Biacore T200 Evaluation Software 2.0 to identify binding using the model steady state affinity.

[7] = target: T3, mouse FcRn (R&D systems, 9114-Fc); assay: as above
Source text: as §4, §5

[8] = target: T5, human CD137, cell-surface; assay: cell-based or functional assay; remark: listed apart in the source
[9] = target: T5, human CD137, cell-surface; assay: cell-based or functional assay; remark: listed apart in the source
[10] = target: T5, human CD137, cell-surface; assay: cell-based or functional assay; remark: listed apart in the source
[11] = target: T5, human CD137, cell-surface; assay: cell-based or functional assay; remark: listed apart in the source
[12] = target: T6, cPD-L1-His (Acro Biosystems, PD1-C52H4); assay: SPR, antibody captured on Protein A chip, antigen in flow
[13] = target: T7, biotinylated hPD-L1-Avi-His (Acro …); assay: as above

| Binder | EC50 (nM) (crosslinked), mIL-2 release, DO11.10.cCD137 with HEK.cyPD-L1 [1] | Emax (pg/ml) (crosslinked), mIL-2 release, DO11.10.cCD137 with HEK.cyPD-L1 [1] [pg/mL] | Kd (cCD137-mFc-Avi) [nM] | Kd (hCD137-mFc-Avi) [nM] | Kd [4] [nM] | Kd [5] [nM] | Kd [6] [nM] | Kd [7] [nM] | also measured |
| --- | --- | --- | --- | --- | --- | --- | --- | --- | --- |
| B1 | 0.08 | 9010 | 0.6 | 2.6 | 0.25 | 0.19 | 998 | 177 | EC50 (nM), hIL-2 release, CD8+ T cells, donor 171115A, HEK.hPD-L1 XL [2]: 0.1 nM; EC50 (nM), hIL-2 release, CD8+ T cells, donor 171115A, MDA-MB-231 XL [2]: 0.01 nM; EC50 (nM), hIL-2 release, CD8+ T cells, donor 171115B, HEK.hPD-L1 XL [2]: 0.11 nM; EC50 (nM), hIL-2 release, CD8+ T cells, donor 171115B, MDA-MB-231 XL [2]: 0.02 nM; EC50 (nM), IFN-γ release, human MLR [3]: 0.04 nM; Emax (pg/ml), IFN-γ release, human MLR [3]: 3130 pg/mL |
| B2 |  |  |  |  |  |  |  |  | Emax (pg/ml), IFN-γ release, CEFT antigen recall assay, crosslinked with anti-human CH2 (EC50 N/A) [8]: 13000 pg/mL; EC50, hIL-2 release, primary human CD8+ T cells, crosslinked with anti-hCH2 [9]: 0.5 nM; EC50 (nM), hIL-2 release, CD8+ T cells, donor 171115A, HEK.hPD-L1 assay, crosslinked with anti-hCH2 [2]: 0.21 nM; EC50 (nM), hIL-2 release, CD8+ T cells, donor 171115A, MDA-MB-231 assay, crosslinked with anti-hCH2 [2]: 0.31 nM; EC50 (nM), hIL-2 release, CD8+ T cells, donor 171115B, HEK.hPD-L1 assay, crosslinked with anti-hCH2 [2]: 0.29 nM; EC50 (nM), hIL-2 release, CD8+ T cells, donor 171115B, MDA-MB-231 assay, crosslinked with anti-hCH2 [2]: 0.28 nM; EC50 (nM), IFN-γ release, CEF antigen recall assay, crosslinked with anti-human CH2 [10]: 0.33 nM; EC50 (nM), IFN-γ release, human MLR, crosslinked with anti-human CH2 [11]: 1.9 nM |
| B3 | 0.08 | 12300 | 2.2 | 1.3 | 1.91 | 1.54 | 1220 | 167 |  |
| B4 |  |  |  |  |  |  |  |  | Kd [12]: 0.75 nM; Kd [13]: 0.44 nM |
